Several values for one entry are separate records, joined by “and”; a condition that tells them apart may be missing. Equal entries are not always repeated. Where two headings read alike, the source gives them in different places. Marks after values point to notes of the source that are not given here.
Key:
influenza virus = settings: orally; cited from earlier work
[1] = system: Punta Toro virus, Adames strain; set-up: species or system C57BL/6 mice; settings: mouse, in vivo
[2] = toxicity controls; 75 mg/kg/day i.p. bid x5
[3] = for tolerability in toxicity control animals: all surviving and losing no weight during therapy; for Tox Controls Surv/Total: uninfected, two treatments
[4] = system: Banzi virus (H336 strain); assay: Banzi virus infection in mice (Example 7); type: in vivo, BALB/c mice; settings: for Infected, treated MDD ± SD: mice dying before day 21; for weight loss: placebo 9.6%; for Average brain titer: placebo 6.9
[5] = Uninfected toxicity controls (Example 7); type: in vivo, BALB/c mice
Procedure: Experiment Design: Animals were injected i.p. with either 10^−3 dilution of Banzi virus stocks diluted in minimal essential media (MEM), or were sham-inoculated. This virus concentration had previously produced approximately 90% mortality in mice. Animals were treated with two doses of 10, 1, 0.1 μg/mouse of Barrogen or with drug vehicle (placebo group). The first dose was administered 4-6 h prior to virus inoculation. The second dose was given 48 h later. As a positive control a group of 15 infected mice were treated with a single dose of Ampligen® 24 h prior to virus inoculation at a dose of 1 mg/kg. Groups of 3 sham-inoculated animals used as toxicity controls were treated with identical compounds on identical schedules to the infected animals.

[6] = dosages used; no deaths or weight loss
[7] = dosages used; no deaths or weight loss; remark: listed apart in the source
[8] = every dose used
[9] = system: Banzi virus (H336 strain); type: in vivo, Balb/c mice; settings: for Infected, treated % survival (alive/total): 21 days; for Infected, treated % Mean wt. change: day 0 vs day 10
[10] = system: Punta Toro virus, Adames strain; set-up: species or system C57BL/6 mice; settings: mouse, in vivo; remark: listed apart in the source
[11] = 0.1 μg/treatment i.p. −4 hpi and 2 dpi
[12] = 1 μg/treatment i.p. −4 hpi and 2 dpi
[13] = 0.1 μg/mouse/day i.p. 4-6 h pre-virus and 48 hr later
[14] = 1 μg/mouse/day i.p. 4-6 h pre-virus and 48 hr later
[15] = 10 μg/mouse/day i.p. 4-6 h pre-virus and 48 hr later

Question: Which “doses down to which highly active against influenza virus infections in mice” value (influenza virus) does the source give for CCOC(=O)C1=C[C@@H](OC(CC)CC)[C@H](NC(C)=O)[C@@H](N)C1 [Oseltamivir] here?
Answer: ~1 mg/kg/day

Question: With NC(=O)c1ncn([C@@H]2O[C@H](CO)[C@@H](O)[C@H]2O)n1 [Ribavirin, reference compound] as the molecule, how does the Liver virus [1] read?
Answer: not detectable

Question: What about the “weight loss during the treatment period” value [2] of the same molecule?
Answer: 0.8 g

Question: With “GM-CSF: Granulocyte macrophage - colony stimulating factor” as the molecule, how does the “tolerability in toxicity control animals” value [3] read?
Answer: well tolerated

Question: And the “Tox Controls Surv/Total” value ([3]; 20 ng i.p.)?
Answer: 3/3

Question: What about the “Tox Controls Surv/Total” value ([3]; 200 ng i.p.) of the same molecule?
Answer: 3/3

Question: With “poly I · poly C12u [Ampligen, reference compound]” as the molecule, how does the “Infected, treated Surv/Total” value ([4]; 1 mg/kg i.p. single dose 24 h pre-virus exposure) read?
Answer: 10/10 (100%)***

Question: What about the survival ([4]; 1 mg/kg single dose 24 h prior, p<0.001) of the same molecule?
Answer: 100%

Question: What about the “animals with virus detected in brain” value ([4]; 1 mg/kg, 8 dpi) of the same molecule?
Answer: 1 of the 5

Question: And the brain virus titer ([4]; 1 mg/kg, 8 dpi, placebo 6.9 log10 CCID50/g of tissue)?
Answer: 5.6

Question: What about the average weight gain ([4]; 1 mg/kg, by 8 dpi) of the same molecule?
Answer: 1.9%

Question: And the “Uninfected toxicity control Surv/Total” value ([5]; 1 mg/kg i.p. single dose)?
Answer: 3/3 (100%)

B1: rBBX-01: Recombinant Apicomplexa-related protein (ARP) having the sequence of SEQ ID NO:20; termed Barrogen, also called rBBX-01 or E1 (protein, listed as Eimeria tenella)
chain: GEEADTQAWDTSVREWLVDTGRVFAGGVASIADGCRLFGAAVEGEGNAWEELVKTNYQIEVPQEDGTSISVDCDEAETLRQAVVDGRAPNGVYIGGTKYKLAEVKRDFTFNDQNYDVAILGKNKGGGFLIKTPNENVVIALYDEEKEQNKADALTTALNFAEYLYQGGF
Question: For B1, which “tolerability in toxicity control animals” value [3] is on record?
Answer: well tolerated

Question: And the “tolerability in toxicity controls” value [6]?
Answer: well tolerated

Question: And the “tolerability in toxicity controls” value [7]?
Answer: well tolerated

Question: What about the “mice protected (survival)” value [1] of the same molecule?
Answer: 100%

Question: And the “reduction of serum viral load” value [1]?
Answer: more than 2 logs

Question: What about the “serum ALT” value [1] of the same molecule?
Answer: markedly reduced

Question: What about the “tolerability in toxicity control mice” value [8] of the same molecule?
Answer: well tolerated

Question: What about the “Infected, treated % survival (alive/total)” value [9, 11] of the same molecule?
Answer: 47% (7/15)**

Question: What about the “Infected, treated % Mean wt. change” value [9, 11] of the same molecule?
Answer: -1.4 g

Question: What about the “Infected, treated % survival (alive/total)” value [9, 12] of the same molecule?
Answer: 47% (7/15)**

Question: And the “Infected, treated % Mean wt. change” value [9, 12]?
Answer: -1.0 g

Question: What about the mean-day-to-death ([9]; Barrogen-treated vs placebo-treated mice (FIG. 30)) of the same molecule?
Answer: significant increase

Question: And the “Infected, treated Surv/Total” value [4, 13]?
Answer: 5/10 (50%)*

Question: What about the “Infected, treated MDD ± SD” value [4, 13] of the same molecule?
Answer: 8.4 ± 5.5

Question: What about the “virus in the brains” value ([4]; 0.1 μg/mouse, 8 dpi) of the same molecule?
Answer: No virus was detected

Question: And the weight loss ([4]; 0.1 μg/mouse, 8 dpi)?
Answer: 0.2%

Question: What about the survival ([4]; 0.1 μg/mouse, placebo 10%, p<0.05) of the same molecule?
Answer: 50%

Question: And the “Infected, treated Surv/Total” value [4, 14]?
Answer: 7/10 (70%)***

Question: What about the “Infected, treated MDD ± SD” value [4, 14] of the same molecule?
Answer: 14.3 ± 1.5

Question: What about the “animals with virus detected in brain” value ([4]; 1 μg/mouse, 8 dpi) of the same molecule?
Answer: 2 out of 5

Question: And the Average brain titer ([4]; 1 μg/mouse, 8 dpi)?
Answer: 4.6 log10 CCID50

Question: And the weight loss ([4]; 1 μg/mouse, 8 dpi)?
Answer: 0.5%

Question: What about the survival ([4]; 1 μg/mouse, placebo 10%, p<0.001) of the same molecule?
Answer: 70%

Question: What about the “Infected, treated Surv/Total” value [4, 15] of the same molecule?
Answer: 4/10 (40%)

Question: What about the “Infected, treated MDD ± SD” value [4, 15] of the same molecule?
Answer: 14.2 ± 3.5

Question: And the “animals with virus detected in brain” value ([4]; 10 μg/mouse, 8 dpi)?
Answer: 2 out of 5

Question: And the Average brain titer ([4]; 10 μg/mouse, 8 dpi)?
Answer: 2.8 log10 CCID50

Question: And the weight loss ([4]; 10 μg/mouse, 8 dpi)?
Answer: 1.3%

Question: And the survival ([4]; 10 μg/mouse, not significantly higher than placebo)?
Answer: 40%

Question: And the “Uninfected toxicity control Surv/Total” value ([5]; 0.1 μg/mouse/day i.p., two doses 48 h apart)?
Answer: 3/3 (100%)

Question: And the “Uninfected toxicity control Surv/Total” value ([5]; 1 μg/mouse/day i.p., two doses 48 h apart)?
Answer: 3/3 (100%)

Question: And the “Uninfected toxicity control Surv/Total” value ([5]; 10 μg/mouse/day i.p., two doses 48 h apart)?
Answer: 3/3 (100%)

Question: And the Hepatic icterus reduced [10]?
Answer: 17-43%

Question: What about the “mice protected / cured” value [10] of the same molecule?
Answer: 100%

Question: And the “serum ALT” value [10]?
Answer: markedly reduced

Question: And the serum virus titers [10]?
Answer: significantly reduced

Question: And the “Mean Liver Score ± SD” value ([10]; ip)?
Answer: 2.6 ± 0.2 and 2.7 ± 0.3 and 2.0 ± 0.6 and 2.9 ± 0.5
